The source of these data is patent publication US11077130.

One test concerns the target B.RHPA Env T278A (HIV-1). The test can be described thus: cell-based or functional assay.
In the next test the target is B.RHPA Env N160K (HIV-1). The test can be described thus: cell-based or functional assay.
The target of another test is B.RHPA Env N276A (HIV-1). The experiment in a line: cell-based or functional assay.
Test [1] addresses B.RHPA Env T278A R456W (HIV-1). The experiment in a line: cell-based or functional assay.
Test [2] concerns the target HIV-1 Env (strain and construct not stated). The test can be described thus: SPR; antibody-Env mixture flowed over immobilized HJ16 (competitor: immobilized HJ16).
For another test, the target named is B.6240 gp120 (HIV-1). The test can be described thus: not stated (binding of B.6420 gp120 to mAbs).

On to HJ16 (antibody), for which the fold increase in IC50 (neutralization, mutant vs wild type) in the test with B.RHPA Env T278A (HIV-1) is greater than 10 fold; with B.RHPA Env N160K (HIV-1), 0.5 fold; in the test with B.RHPA Env N276A (HIV-1) it was greater than 10 fold; in test [1] it was greater than 1000 fold. Moreover, the percent blocked in test [2] is 96%.

Regarding PG9 (antibody), the quantity not named (value printed after the antibody's name) in the test with B.6240 gp120 (HIV-1) came to 32.1 nM.
